Results reported in PMC10584365 (Nature, 2023).
Where “and” joins values, the source holds several entries; their conditions need not be identical. Equal entries are not always repeated.

B1: full-length human TRPV3 channel (expressed in P. pastoris) (natural protein, UniProt Q8NET8 1-790, looked up)
chain: MKAHPKEMVPLMGKRVAAPSGNPAILPEKRPAEITPTKKSAHFFLEIEGFEPNPTVAKTSPPVFSKPMDSNIRQCISGNCDDMDSPQSPQDDVTETPSNPNSPSAQLAKEEQRRKKRRLKKRIFAAVSEGCVEELVELLVELQELCRRRHDEDVPDFLMHKLTASDTGKTCLMKALLNINPNTKEIVRILLAFAEENDILGRFINAEYTEEAYEGQTALNIAIERRQGDIAALLIAAGADVNAHAKGAFFNPKYQHEGFYFGETPLALAACTNQPEIVQLLMEHEQTDITSRDSRGNNILHALVTVAEDFKTQNDFVKRMYDMILLRSGNWELETTRNNDGLTPLQLAAKMGKAEILKYILSREIKEKRLRSLSRKFTDWAYGPVSSSLYDLTNVDTTTDNSVLEITVYNTNIDNRHEMLTLEPLHTLLHMKWKKFAKHMFFLSFCFYFFYNITLTLVSYYRPREEEAIPHPLALTHKMGWLQLLGRMFVLIWAMCISVKEGIAIFLLRPSDLQSILSDAWFHFVFFIQAVLVILSVFLYLFAYKEYLACLVLAMALGWANMLYYTRGFQSMGMYSVMIQKVILHDVLKFLFVYIVFLLGFGVALASLIEKCPKDNKDCSSYGSFSDAVLELFKLTIGLGDLNIQQNSKYPILFLFLLITYVILTFVLLLNMLIALMGETVENVSKESERIWRLQRARTILEFEKMLPEWLRSRFRMGELCKVAEDDFRLCLRINEVKWTEWKTHVSFLNEDPGPVRRTDFNKIQDSSRNNSKTTLNAFEEVEEFPETSV
B2: full-length human TRPV3 (expressed in HEK293S GnTI- cells) (natural protein, UniProt Q8NET8 1-790, looked up)
chain: B1 chain

Target: the molecule itself
Assay: high-speed atomic force microscopy

Protein	stoichiometry N
B1	4 and 5
B2	3 and 2
